# Laboratory results reported in US10801027B2, “Inhibitors of SRSF1 to treat neurodegenerative disorders” (University of Sheffield, priority 2016, dated 2020).
# T1: NXF1 (Mus musculus, UniProt Q99JX7)
# T1 construct: endogenous in cells; host or cells: Neuro-2a (N2A)
# T1 sequence (Q99JX7 1-618): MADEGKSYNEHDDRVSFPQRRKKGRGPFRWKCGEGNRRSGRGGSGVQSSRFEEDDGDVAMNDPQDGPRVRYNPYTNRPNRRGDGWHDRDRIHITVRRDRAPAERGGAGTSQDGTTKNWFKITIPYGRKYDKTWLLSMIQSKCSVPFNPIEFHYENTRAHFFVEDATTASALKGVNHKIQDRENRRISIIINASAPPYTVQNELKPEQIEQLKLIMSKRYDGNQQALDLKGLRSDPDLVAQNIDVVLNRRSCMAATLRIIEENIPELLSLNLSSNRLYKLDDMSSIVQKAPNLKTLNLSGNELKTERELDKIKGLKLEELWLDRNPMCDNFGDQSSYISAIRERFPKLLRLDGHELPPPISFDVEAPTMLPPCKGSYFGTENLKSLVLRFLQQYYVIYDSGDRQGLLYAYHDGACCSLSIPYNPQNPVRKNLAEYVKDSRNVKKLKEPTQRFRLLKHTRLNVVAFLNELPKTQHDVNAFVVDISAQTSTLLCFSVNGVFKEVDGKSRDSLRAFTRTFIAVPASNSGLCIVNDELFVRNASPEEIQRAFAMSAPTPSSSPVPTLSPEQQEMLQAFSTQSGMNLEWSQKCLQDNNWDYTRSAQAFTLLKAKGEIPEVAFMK
# Tests used:
# NXF1 = molecular target: T1, NXF1; test: Anti-FLAG co-immunoprecipitation of endogenous NXF1 in N2A cells; assay type: binding; conditions: FLAG-tagged protein, 48 h
# Procedure: Cells were split into 1×10 cm plates/treatment (1.5×10^6 cells/plate) and transfected with 15 μg p3×FLAG, p3×FLAG/SRSF1 (11-196), p3×FLAG/SRSF1 (11-196)-m2 or p3×FLAG/SRSF1(11-196)-m4 using 3 μg PEI/1 μg DNA and one tenth medium volume OptiMEM.
# Proteins were extracted from Neuro-2a cells 48 hours after transfection. Cells were briefly washed in ice cold PBS, scraped into 500 μl ice cold lysis buffer, passed through a 21G gauge needle 10 times and left to lyse on ice for 10 minutes. Lysed cells were cleared by centrifugation at maximum speed at 4° C. for five minutes and protein extracts were quantified using Bradford Reagent. 2 mg of total protein in 1 ml lysis buffer was incubated with 30 μl anti-FLAG® M2 affinity resin slurry (Sigma A2220) (which had been blocked overnight with 1% BSA in IP lysis buffer) for 2 hours at 4° C. on a rotating wheel. […] 30 μg total protein and 15 μl captured protein complexes were resolved by SDS-PAGE, electroblotted onto nitrocellulose membrane and probed using FLAG, NXF1 clone 53H8 [1:2000] (Abcam ab50609) and […]-tubulin.
# G4C2×5 repeat RNA = test: Protein:RNA UV crosslinking assay, sense probe; assay type: binding; conditions: purified recombinant hexa-histidine-tagged protein
# Procedure: Recombinant proteins expressed in 1.51 of E. coli BL21 (DE3)-RP (Novagen) cell cultures were purified by IMAC chromatography on TALON/Cobalt beads (Clontech) in 1M NaCl containing buffers to prevent the potential co-purification of E. coli RNA (Lysis buffer: 50 mM TRIS-HCl pH8.0, 1M NaCl, 0.5% Triton X-100; Wash buffer: 50 mM TRIS-HCl pH8.0, 1M NaCl, 0.5% Triton X-100, 5 mM imidazole). […] Binding reactions were resolved on SDS-PAGE prior to analysis by Coomassie staining and Phosphoimaging.
# G4C2×38 transcripts = test: Cytoplasmic fractionation and qRT-PCR of G4C2×38 transcripts in N2A cells; assay type: cell-based, mouse
# Procedure: Neuro-2a cells were split into each well of 6 well plates (2×10^6 cells/well) and transfected for 72 hours with 1 μg pcDNA6.2-GW/EmGFP-Control miR RNAi, pcDNA6.2-GW/EmGFP-mouse SRSF1 miR1+2 RNAi, p3×FLAG/SRSF1 (11-196), or p3×FLAG/SRSF1 (11-196)-m4 and 1 μg pcDNA 3.1/RAN-G4C2×38-sense or RAN-C4G2×39-antisense using 3 μg PEI/1 μg DNA and one tenth medium volume OptiMEM. iNeurons were cultured in 6-well plates and transduced with 5MOI human LV-SRSF1-RNAi lentivirus for 5 days.
# Cytoplasmic fractionation was performed as follows. Cells were removed from the plate using DEPC PBS and pelleted by centrifugation at 800×g for 5 minutes. Cell pellets were quickly washed with hypotonic lysis buffer (10 mM HEPES pH 7.9, 1.5 mM MgCl2, 10 mM KCl, 0.5 mM DTT). Cell pellets were then lysed in hypotonic lysis buffer containing 0.16 U/μL Ribosafe RNase inhibitors (Bioline), 2 mM PMSF (Sigma) and […]™ Protease Inhibitor Cocktail tablets, EDTA free (Sigma) according to manufacturer's instructions. Cells were lysed gently using a cut P1000 tip ensuring no physical force was exerted on the cell pellet. For fly tissue, da-GAL4 was used to drive transgene expression in all tissues, and 10 third instar larvae were homogenised and lysed using the same buffer and a dounce homogenizer. The lysate then underwent differential centrifugation (1,500 g, 3 min, 4° C. then 3,500 g […], 8 min, 4° C. and then 17,000 g, 1 min, 4° C.) transferring the supernatant to a fresh tube after each centrifugation. The supernatant was then added to PureZOL (Biorad) to extract RNA. […]
# Following RNA quantification, 2 μg RNA was converted to cDNA using BioScript™ Reverse Transcriptase (Bioline). qRT-PCR primers were designed using Primer-BLAST (NCBI) and validated using a 1 in 4 serial template dilution series (standard curve with R^2>0.97). qRT-PCR reactions were performed in duplicate for 3 independent biological repeats using the Brilliant III Ultra-Fast SYBR® Green QPCR Master Mix (Agilent Technologies) on a MX3000P QPCR system (Statagene). qRT-PCR data was analysed using MxPro (Stratagene) and GraphPad Prism (Version 6). […]
molecule,measurement,setting,value
"SRSF1-m4: quadruple SRSF1 point mutant aa11-196, dominant negative, does not interact with TAP/NXF1 (protein, left off: small tags and cut ends) AGNNDCRIYVGNLPPDIRTKDIEDVFYKYGAIRDIDLKNRRGGPPFAFVEFEDPRDAEDAVYGRDGYDYDGYRLRVEFPASGAGTGRGGGGGGGGGAPRGRYGPPSAASENRVVVSGLPPSGSWQDLKDHMREAGDVCYADVYRDGTGVVEFVRKEDMTYAVRKLDNTKFRSHEGETAYIRVKVDG",co-immunoprecipitation of endogenous NXF1,NXF1,severely impaired
same,direct interaction with sense G4C2×5 repeat RNA,G4C2×5 repeat RNA,retains the ability to directly interact
same,cytoplasmic repeat transcript levels normalized to total levels,"G4C2×38 transcripts; G4C2×38, RNAi vs Ctrl-RNAi, SRSF1-m4 vs SRSF1",marked reduction
same,cytoplasmic levels of G4C2×38 transcripts,G4C2×38 transcripts; normalized to U1 snRNA,markedly reduced
same,total levels of G4C2×38 transcripts,G4C2×38 transcripts; normalized to U1 snRNA,not significantly altered
